From publication PMC7117912 (2020)
Ends that are not written are not given here.

Target: H2-D^b (mouse MHC I heavy chain ectodomain) refolded with human β2-microglobulin (mouse | human)
Assay: FP

B1: ASNC*NMETM (fluorescently labeled high-affinity peptide for H2-D^b) (peptide)
peptide: ASNC(TAMRA)NMETM
Q: B1 was tested. Which koff did it give?
A: The koff was 0.00035 s⁻¹.
